Measurements reported in paper PMC11585597.

Experiments:
[1] = biological target: StrepII-∆N-term DERA (Chloroflexi bacterium GWB2_54_36); assay: pull-down + SEC
[2] = biological target: HIS-∆N-term DERA (deoxyribose 5-phosphate aldolase of the SPU6 BMC locus, N-terminal extension deleted) (Chloroflexi bacterium GWB2_54_36); assay: SEC

Substance	stoichiometry N [1]	subunits of each protein in the complex [1]	stoichiometry N [2]
HIS-RPI (ribose 5-phosphate isomerase B family protein of the SPU6 BMC locus, full length) (enzyme)	1	> 2	
HIS-∆N-term DERA (deoxyribose 5-phosphate aldolase of the SPU6 BMC locus, N-terminal extension deleted) (domain or fragment)			2
